Experimental data taken from patent publication CN113754774A (SUNSHINE GUOJIAN PHARMACEUTICAL SHANGHAI CO LTD, dated 2021).

B1: Cetuximab-HC+Anti-PDL1-LC (antibody, V domains shown)
VH: not shown
VL: EIVLTQSPDFLSVTPKEKVTITCRASQSIGTTIHWYQQKPDQSPKLLIKYASQSFSGVPSRFSGSGSGTDFTLTINSVEAEDAATYYCQQSNSWPLTFGAGTKLEIKR
notes: Hybrid antibody: heavy chain of Cetuximab with the light chain of Anti-PDL1 (the common light chain)
B2: PDL1-Fab-Cetuximab-IgG1 (bispecific antibody)
heavy: not shown
light: EIVLTQSPDFLSVTPKEKVTITCRASQSIGTTIHWYQQKPDQSPKLLIKYASQSFSGVPSRFSGSGSGTDFTLTINSVEAEDAATYYCQQSNSWPLTFGAGTKLEIKRTVAAPSVFIFPPSDEQLKSGTASVVCLLNNFYPREAKVQWKVDNALQSGNSQESVTEQDSKDSTYSLSSTLTLSKADYEKHKVYACEVTHQGLSSPVTKSFNRGEC
notes: Tetravalent bispecific antibody against PD-L1 and EGFR; two long polypeptide chains and four common light chains
B3: Cetuximab-Fab-PDL1-IgG1 (bispecific antibody)
heavy: not shown
light: B2 light
notes: as for B2

Assays:
[1] = target: T1, EGFR-ECD-hFc (human, UniProt P00533 25-645); assay: ELISA, EGFR-ECD-hFc coated (Fig. 3B)
T1 construct: extracellular domain; Made in-house in HEK293F; ELISA coating antigen; not shown: Fc segment of human IgG1

[2] = target: T1, EGFR-ECD-hFc; assay: ELISA, EGFR-ECD-hFc coated, HRP anti-human Fab detection (Fig. 2B)
[3] = target: 野生型EGFR on A431 cells (human, UniProt P00533 25-1210); assay: cell-based or functional assay
[4] = target: T2, PD-L1-His (UniProt Q9NZQ7 19-238, limits assumed); assay: ELISA, PD-L1-His coated at 10 ng/well
T2 construct: extracellular domain; Made in-house in HEK293F; used as ELISA coat and as Biacore analyte; not shown: C-terminal polyhistidine tag

[5] = target: T2, PD-L1-His; assay: ELISA, PD-L1-His coated (Fig. 3A)

Binder	EC50 [1]	EC50 [2]	抑制A431细胞的增殖 IC50 (CCK-8) [3]	binding result [4]	EC50 [5]
B1	0.225 nM	0.248 nM	0.563 nM	no binding	
B2	0.239 nM		0.709 nM		0.2 nM
B3	0.185 nM		0.96 nM		0.336 nM
